Test system: Escherichia coli TOP10
Test: shrunken log2 fold change of peptide-encoding DNA abundance (4.5 h post-induction vs induction); higher = less antimicrobial activity (less host growth inhibition)
Conditions: time post-induction: 4.5 h; library: site-saturation at positions 5, 18, 19, 20
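Note: peptides expressed intracellularly from a pBAD plasmid library in pooled LB shake-flask culture, induced with 0.3% L-arabinose, DNA abundance read by NGS, three biological replicates, DESeq2 with apeglm shrinkage.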

Sequence: RRIRLRPPRLPRPRPRPNSLPRP
- shrunken log2 fold change: -0.101

Sequence: RRIRVRPPRLPRPRPRPDGPPRP
- shrunken log2 fold change: 0.0955

Sequence: RRIRWRPPRLPRPRPRPFLNPRP
- shrunken log2 fold change: -0.425

Sequence: RRIRERPPRLPRPRPRPYAVPRP
- shrunken log2 fold change: -0.441

Sequence: RRIRWRPPRLPRPRPRPWRNPRP
- shrunken log2 fold change: 0.0636

Sequence: RRIRMRPPRLPRPRPRPRSFPRP
- shrunken log2 fold change: 0.307

Sequence: RRIRHRPPRLPRPRPRPWSAPRP
- shrunken log2 fold change: -0.547

Sequence: RRIRVRPPRLPRPRPRPICWPRP
- shrunken log2 fold change: 0.0488

Sequence: RRIRCRPPRLPRPRPRPEVIPRP
- shrunken log2 fold change: -0.083

Sequence: RRIRYRPPRLPRPRPRPHLPPRP
- shrunken log2 fold change: -0.542

Sequence: RRIRRRPPRLPRPRPRPGIAPRP
- shrunken log2 fold change: 0.185

Sequence: RRIRFRPPRLPRPRPRPIMIPRP
- shrunken log2 fold change: -0.113

Sequence: RRIRTRPPRLPRPRPRPQENPRP
- shrunken log2 fold change: -0.165

Sequence: RRIRERPPRLPRPRPRPNLAPRP
- shrunken log2 fold change: -0.194

Sequence: RRIRTRPPRLPRPRPRPRYEPRP
- shrunken log2 fold change: -0.0806

Sequence: RRIRTRPPRLPRPRPRPQSDPRP
- shrunken log2 fold change: -0.0398

Sequence: RRIRARPPRLPRPRPRPIWTPRP
- shrunken log2 fold change: -0.144

Sequence: RRIRERPPRLPRPRPRPRMYPRP
- shrunken log2 fold change: -0.723

Sequence: RRIRPRPPRLPRPRPRPILVPRP
- shrunken log2 fold change: -0.178

Sequence: RRIRFRPPRLPRPRPRPMANPRP
- shrunken log2 fold change: -0.104

Sequence: RRIRGRPPRLPRPRPRPPYYPRP
- shrunken log2 fold change: -0.0196

Sequence: RRIRDRPPRLPRPRPRPIVEPRP
- shrunken log2 fold change: 0.0518

Sequence: RRIRPRPPRLPRPRPRPPQSPRP
- shrunken log2 fold change: 0.621

Sequence: RRIRHRPPRLPRPRPRPSNCPRP
- shrunken log2 fold change: -0.337

Sequence: RRIRMRPPRLPRPRPRPRMGPRP
- shrunken log2 fold change: 1.11

Sequence: RRIRYRPPRLPRPRPRPNLEPRP
- shrunken log2 fold change: -0.113

Sequence: RRIRYRPPRLPRPRPRPGCGPRP
- shrunken log2 fold change: -0.0402

Sequence: RRIRPRPPRLPRPRPRPICYPRP
- shrunken log2 fold change: -0.407

Sequence: RRIRERPPRLPRPRPRPTAIPRP
- shrunken log2 fold change: 0.32

Sequence: RRIRHRPPRLPRPRPRPFYFPRP
- shrunken log2 fold change: -0.355

Sequence: RRIRLRPPRLPRPRPRPYWDPRP
- shrunken log2 fold change: -0.195

Sequence: RRIRNRPPRLPRPRPRPTAVPRP
- shrunken log2 fold change: 0.495

Sequence: RRIRCRPPRLPRPRPRPRYVPRP
- shrunken log2 fold change: -0.22

Sequence: RRIRCRPPRLPRPRPRPSTHPRP
- shrunken log2 fold change: -0.454

Sequence: RRIRFRPPRLPRPRPRPANCPRP
- shrunken log2 fold change: -0.211

Sequence: RRIRIRPPRLPRPRPRPEGEPRP
- shrunken log2 fold change: 0.134

Sequence: RRIRMRPPRLPRPRPRPPLCPRP
- shrunken log2 fold change: 1.72

Sequence: RRIRKRPPRLPRPRPRPLAVPRP
- shrunken log2 fold change: 0.0855

Sequence: RRIRGRPPRLPRPRPRPHFPPRP
- shrunken log2 fold change: 0.0246

Sequence: RRIRHRPPRLPRPRPRPVNSPRP
- shrunken log2 fold change: 0.158

Sequence: RRIRSRPPRLPRPRPRPSDAPRP
- shrunken log2 fold change: 0.0409

Sequence: RRIRERPPRLPRPRPRPRCGPRP
- shrunken log2 fold change: 0.146

Sequence: RRIRNRPPRLPRPRPRPPPQPRP
- shrunken log2 fold change: 0.931

Sequence: RRIRQRPPRLPRPRPRPKLNPRP
- shrunken log2 fold change: -0.165

Sequence: RRIRNRPPRLPRPRPRPWVDPRP
- shrunken log2 fold change: -0.00748

Sequence: RRIRWRPPRLPRPRPRPCDTPRP
- shrunken log2 fold change: -0.165

Sequence: RRIRRRPPRLPRPRPRPPVSPRP
- shrunken log2 fold change: 0.332

Sequence: RRIRIRPPRLPRPRPRPDDRPRP
- shrunken log2 fold change: 0.0115

Sequence: RRIRDRPPRLPRPRPRPYMNPRP
- shrunken log2 fold change: -0.665

Sequence: RRIRQRPPRLPRPRPRPRFPPRP
- shrunken log2 fold change: 0.0593

Sequence: RRIRHRPPRLPRPRPRPNNDPRP
- shrunken log2 fold change: -0.727

Sequence: RRIRWRPPRLPRPRPRPPINPRP
- shrunken log2 fold change: -0.0948

Sequence: RRIRMRPPRLPRPRPRPFGSPRP
- shrunken log2 fold change: 0.00388

Sequence: RRIRNRPPRLPRPRPRPTNQPRP
- shrunken log2 fold change: -0.281

Sequence: RRIRARPPRLPRPRPRPNEPPRP
- shrunken log2 fold change: -0.115

Sequence: RRIRCRPPRLPRPRPRPYQTPRP
- shrunken log2 fold change: -0.0384

Sequence: RRIRTRPPRLPRPRPRPDEAPRP
- shrunken log2 fold change: -0.0661

Sequence: RRIRDRPPRLPRPRPRPVAAPRP
- shrunken log2 fold change: 0.833

Sequence: RRIRNRPPRLPRPRPRPAKWPRP
- shrunken log2 fold change: 0.112

Sequence: RRIRIRPPRLPRPRPRPSPLPRP
- shrunken log2 fold change: -0.499

Sequence: RRIRTRPPRLPRPRPRPGKPPRP
- shrunken log2 fold change: 0.0978

Sequence: RRIRLRPPRLPRPRPRPDTNPRP
- shrunken log2 fold change: -0.103

Sequence: RRIRRRPPRLPRPRPRPGMRPRP
- shrunken log2 fold change: 0.792

Sequence: RRIRQRPPRLPRPRPRPNWCPRP
- shrunken log2 fold change: -0.0237

Sequence: RRIRFRPPRLPRPRPRPIPCPRP
- shrunken log2 fold change: -0.256

Sequence: RRIRVRPPRLPRPRPRPDKRPRP
- shrunken log2 fold change: 0.0226

Sequence: RRIRFRPPRLPRPRPRPDERPRP
- shrunken log2 fold change: -0.0426

Sequence: RRIRCRPPRLPRPRPRPACKPRP
- shrunken log2 fold change: -0.312

Sequence: RRIRCRPPRLPRPRPRPLCIPRP
- shrunken log2 fold change: -0.353

Sequence: RRIRRRPPRLPRPRPRPMLCPRP
- shrunken log2 fold change: 0.709

Sequence: RRIRLRPPRLPRPRPRPWWMPRP
- shrunken log2 fold change: -0.0102

Sequence: RRIRSRPPRLPRPRPRPISHPRP
- shrunken log2 fold change: -0.421

Sequence: RRIRIRPPRLPRPRPRPCMVPRP
- shrunken log2 fold change: -1.06

Sequence: RRIRMRPPRLPRPRPRPTSRPRP
- shrunken log2 fold change: 0.385

Sequence: RRIRSRPPRLPRPRPRPEKSPRP
- shrunken log2 fold change: -0.32

Sequence: RRIRCRPPRLPRPRPRPKCLPRP
- shrunken log2 fold change: 0.036

Sequence: RRIRERPPRLPRPRPRPREQPRP
- shrunken log2 fold change: -0.0138

Sequence: RRIRFRPPRLPRPRPRPHMLPRP
- shrunken log2 fold change: 0.798

Sequence: RRIRVRPPRLPRPRPRPMCKPRP
- shrunken log2 fold change: -0.508

Sequence: RRIRDRPPRLPRPRPRPPHEPRP
- shrunken log2 fold change: 0.00485

Sequence: RRIRKRPPRLPRPRPRPKVTPRP
- shrunken log2 fold change: 0.0261

Sequence: RRIRKRPPRLPRPRPRPLMYPRP
- shrunken log2 fold change: -0.0706

Sequence: RRIRMRPPRLPRPRPRPPKLPRP
- shrunken log2 fold change: 0.343

Sequence: RRIRARPPRLPRPRPRPARHPRP
- shrunken log2 fold change: 0.424

Sequence: RRIRVRPPRLPRPRPRPKMVPRP
- shrunken log2 fold change: -0.109

Sequence: RRIRYRPPRLPRPRPRPQKQPRP
- shrunken log2 fold change: 0.00415

Sequence: RRIRYRPPRLPRPRPRPWSDPRP
- shrunken log2 fold change: -0.0783

Sequence: RRIRMRPPRLPRPRPRPYPKPRP
- shrunken log2 fold change: 0.0427

Sequence: RRIRERPPRLPRPRPRPQEMPRP
- shrunken log2 fold change: -0.391

Sequence: RRIRYRPPRLPRPRPRPNHWPRP
- shrunken log2 fold change: -0.4

Sequence: RRIRCRPPRLPRPRPRPDFPPRP
- shrunken log2 fold change: 0.137

Sequence: RRIRNRPPRLPRPRPRPGMFPRP
- shrunken log2 fold change: -0.252

Sequence: RRIRERPPRLPRPRPRPNWVPRP
- shrunken log2 fold change: -0.0244

Sequence: RRIRPRPPRLPRPRPRPACKPRP
- shrunken log2 fold change: 0.0686

Sequence: RRIRERPPRLPRPRPRPLSLPRP
- shrunken log2 fold change: -0.371

Sequence: RRIRSRPPRLPRPRPRPDKGPRP
- shrunken log2 fold change: -0.108

Sequence: RRIRFRPPRLPRPRPRPTEQPRP
- shrunken log2 fold change: -0.0361

Sequence: RRIRKRPPRLPRPRPRPPPNPRP
- shrunken log2 fold change: 0.982

Sequence: RRIRFRPPRLPRPRPRPAPSPRP
- shrunken log2 fold change: 0.607

Sequence: RRIRSRPPRLPRPRPRPHDGPRP
- shrunken log2 fold change: -0.01

Sequence: RRIRPRPPRLPRPRPRPQKFPRP
- shrunken log2 fold change: -0.178

Sequence: RRIRGRPPRLPRPRPRPMTNPRP
- shrunken log2 fold change: 0.835

Sequence: RRIRCRPPRLPRPRPRPFGQPRP
- shrunken log2 fold change: -0.442

Sequence: RRIRHRPPRLPRPRPRPFYMPRP
- shrunken log2 fold change: -0.292

Sequence: RRIRMRPPRLPRPRPRPPHWPRP
- shrunken log2 fold change: 0.898

Sequence: RRIRTRPPRLPRPRPRPNEKPRP
- shrunken log2 fold change: -0.144

Sequence: RRIRTRPPRLPRPRPRPPTGPRP
- shrunken log2 fold change: 0.158

Sequence: RRIRARPPRLPRPRPRPEAWPRP
- shrunken log2 fold change: -0.00193

Sequence: RRIRCRPPRLPRPRPRPWFIPRP
- shrunken log2 fold change: -0.51

Sequence: RRIRERPPRLPRPRPRPGHLPRP
- shrunken log2 fold change: -0.0138

Sequence: RRIRDRPPRLPRPRPRPMRHPRP
- shrunken log2 fold change: 0.089

Sequence: RRIRGRPPRLPRPRPRPVGEPRP
- shrunken log2 fold change: 1.23

Sequence: RRIRPRPPRLPRPRPRPEIFPRP
- shrunken log2 fold change: 0.137

Sequence: RRIRGRPPRLPRPRPRPESFPRP
- shrunken log2 fold change: 0.0921

Sequence: RRIRYRPPRLPRPRPRPMYVPRP
- shrunken log2 fold change: -0.0549

Sequence: RRIRFRPPRLPRPRPRPEFGPRP
- shrunken log2 fold change: 0.0197

Sequence: RRIRFRPPRLPRPRPRPHDVPRP
- shrunken log2 fold change: -0.00911

Sequence: RRIRARPPRLPRPRPRPLMDPRP
- shrunken log2 fold change: 0.634

Sequence: RRIRWRPPRLPRPRPRPQNFPRP
- shrunken log2 fold change: 0.0414

Sequence: RRIRHRPPRLPRPRPRPVWPPRP
- shrunken log2 fold change: 0.217

Sequence: RRIRPRPPRLPRPRPRPCVIPRP
- shrunken log2 fold change: -0.222

Sequence: RRIRTRPPRLPRPRPRPTYNPRP
- shrunken log2 fold change: -0.593

Sequence: RRIRSRPPRLPRPRPRPEVTPRP
- shrunken log2 fold change: 0.501

Sequence: RRIRQRPPRLPRPRPRPIKWPRP
- shrunken log2 fold change: 0.00957

Sequence: RRIRPRPPRLPRPRPRPVDMPRP
- shrunken log2 fold change: 0.0425

Sequence: RRIRWRPPRLPRPRPRPKAKPRP
- shrunken log2 fold change: 0.166

Sequence: RRIRERPPRLPRPRPRPHTLPRP
- shrunken log2 fold change: -0.571

Sequence: RRIRFRPPRLPRPRPRPADNPRP
- shrunken log2 fold change: 0.0503

Sequence: RRIRGRPPRLPRPRPRPCMIPRP
- shrunken log2 fold change: 0.235

Sequence: RRIRTRPPRLPRPRPRPRWMPRP
- shrunken log2 fold change: 0.0454

Sequence: RRIRWRPPRLPRPRPRPRESPRP
- shrunken log2 fold change: 0.846

Sequence: RRIRPRPPRLPRPRPRPWIEPRP
- shrunken log2 fold change: -0.162

Sequence: RRIRFRPPRLPRPRPRPSQMPRP
- shrunken log2 fold change: -0.208

Sequence: RRIRLRPPRLPRPRPRPIIVPRP
- shrunken log2 fold change: -0.0625

Sequence: RRIRQRPPRLPRPRPRPFLYPRP
- shrunken log2 fold change: -0.615

Sequence: RRIRKRPPRLPRPRPRPRLEPRP
- shrunken log2 fold change: 0.782

Sequence: RRIRRRPPRLPRPRPRPCNYPRP
- shrunken log2 fold change: 0.159

Sequence: RRIRHRPPRLPRPRPRPTDMPRP
- shrunken log2 fold change: 0.151

Sequence: RRIRTRPPRLPRPRPRPYCSPRP
- shrunken log2 fold change: -0.858

Sequence: RRIRCRPPRLPRPRPRPRIDPRP
- shrunken log2 fold change: 0.117

Sequence: RRIRHRPPRLPRPRPRPNPMPRP
- shrunken log2 fold change: -0.00731

Sequence: RRIRNRPPRLPRPRPRPEAAPRP
- shrunken log2 fold change: 0.902

Sequence: RRIRYRPPRLPRPRPRPFFHPRP
- shrunken log2 fold change: -1.2

Sequence: RRIRSRPPRLPRPRPRPHGAPRP
- shrunken log2 fold change: 0.104

Sequence: RRIRVRPPRLPRPRPRPNPHPRP
- shrunken log2 fold change: -0.185

Sequence: RRIRRRPPRLPRPRPRPKFGPRP
- shrunken log2 fold change: 0.172

Sequence: RRIRGRPPRLPRPRPRPLCLPRP
- shrunken log2 fold change: 0.437

Sequence: RRIRCRPPRLPRPRPRPRPPPRP
- shrunken log2 fold change: 1.49

Sequence: RRIRHRPPRLPRPRPRPDTPPRP
- shrunken log2 fold change: -0.0405

Sequence: RRIRARPPRLPRPRPRPHHVPRP
- shrunken log2 fold change: -0.0499
